# Laboratory results: the supplement of paper PMC10724198
# Legend:
# Saccharomyces cerevisiae [1] = experiment: protein stability index of tFT-peptide fusion in wild type (PSI (0-1 scale)); higher = more stable (slower turnover); conditions: genetic background: wild type
# Saccharomyces cerevisiae [2] = experiment: protein stability index of tFT-peptide fusion in deletion strain of DOA10 (PSI (0-1 scale)); higher = more stable (slower turnover)
# Method: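 MPS profiling in S. cerevisiae of two library types built from selected 12-aa C-degron peptides (IN1, IN2, LN1, LN3, VN2, R1-R5, W1-W3, Atg1 and Rpa12 C-termini): saturation mutagenesis libraries and C-terminal +1 capping libraries (13 aa). Each peptide is fused to the C-terminus of a sfGFP-mCherry timer, after a GGGS linker. Cells are FACS-sorted into 8 mCherry/sfGFP bins and sequenced. PSI runs from 0 (unstable) to 1 (stable), measured once in wild type and in the das1Δ or doa10Δ background.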
# 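Wherever protein stability index of tFT-peptide fusion in deletion strain of DOA10 is given: PSI per variant is the weighted mean of its sequencing read distribution over the sorted stability bins, counting only variants with over 10 reads summed across bins.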
# 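Wherever protein stability index of tFT-peptide fusion in wild type is given: PSI derived as read-weighted mean over the 8 sorting bins, only variants exceeding 10 total reads kept, mCherry placed adjacent to the peptide and sfGFP distal.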
Sequence,protein stability index (Saccharomyces cerevisiae [1]),protein stability index (Saccharomyces cerevisiae [2])
RVTRLDAIYHRI,0.662,0.723
AITLPMCPLLMR,0.302,0.606
CLVSLPILLFFRR,0.0999,0.593
RVYRLDAIYFRI,0.321,0.587
RSLRVLLPNYFR,0.64,0.673
RSLRVLLDLYFR,0.64,0.654
AITLSMCPLLLR,0.311,0.653
AITLPMCPLLQR,0.626,0.671
AITLPKCPLLLR,0.335,0.663
RVTMLDAIYFRI,0.52,0.614
CYVSLPILLFFR,0.0495,0.582
AITLPFCPLLLR,0.138,0.667
CLVSLPILLFER,0.569,0.625
RVTRLDAIYYRI,0.582,0.716
RSLRELLPLYFR,0.476,0.698
GLYMCSVGFWFR,0.364,0.545
CLVSLTILLFFR,0.185,0.263
AITNPMCPLLLR,0.488,0.658
RSLRVLTPLYFR,0.246,0.68
GLYMCSVGCLFR,0.575,0.654
RVTRLDAQYFRI,0.668,0.683
GLYMCSAGCWFR,0.427,0.696
GLYMCDVGCWFR,0.59,0.699
CLVSPPILLFFR,0.0809,0.651
AITLPMCPELLR,0.663,0.674

Sequence,protein stability index (Saccharomyces cerevisiae [1]),protein stability index (Saccharomyces cerevisiae [2])
GLYMCSVGCWPR,0.64,0.67
GLYMCSVGQWFR,0.636,0.671
CLVSLPILLFRR,0.43,0.66
AITRPMCPLLLR,0.393,0.65
RSLRVLLPLLFR,0.371,0.661
AITLPMCPQLLR,0.64,0.688
GLEMCSVGCWFR,0.241,0.658
GLYMCSVGPWFR,0.656,0.688
GLYMCSVGCNFR,0.632,0.648
EITLPMCPLLLR,0.338,0.656
GLYMCSVGCWFRE,0.453,0.641
GLYMQSVGCWFR,0.287,0.678
GLFMCSVGCWFR,0.264,0.549
GHYMCSVGCWFR,0.365,0.643
PVTRLDAIYFRI,0.425,0.693
CLVSLPILLFSR,0.391,0.486
RVTRLDAPYFRI,0.676,0.722
GLYMCYVGCWFR,0.223,0.423
CHVSLPILLFFR,0.0491,0.624
AITLPMIPLLLR,0.115,0.595
RVTRLDAIYFRY,0.447,0.722
GLYMCSVGCWQR,0.629,0.677
MVTRLDAIYFRI,0.237,0.653
TITLPMCPLLLR,0.296,0.633
